Results reported in publication PMC5659210, “Extending the biocatalytic scope of regiocomplementary flavin-dependent halogenase enzymes” (Chemical Science, 2015).

Tested on: Nc1ccccc1C(=O)O
Experiment: Michaelis-Menten chlorination assay, HPLC, Fre-coupled
Type: biochemical, Pseudomonas fluorescens
Conditions: Fre in excess, 30 °C
Source text: Michaelis-Menten chlorination assay, HPLC, Fre-coupled on PrnA

| Substance | Km | kcat | kcat/Km |
| --- | --- | --- | --- |
| PrnA (Pseudomonas fluorescens; E450K) | 384 ± 93 µM | 0.0155 ± 0.000833 s⁻¹ | 40 ± 10 M⁻¹ s⁻¹ |
| PrnA (Pseudomonas fluorescens; E450K/F454K) | 205 ± 16 µM | 0.0303 ± 0.000667 s⁻¹ | 148 ± 11.7 M⁻¹ s⁻¹ |
| PrnA (Pseudomonas fluorescens; E450K/F454R) | 378 ± 59 µM | 0.0212 ± 0.00117 s⁻¹ | 56.7 ± 10 M⁻¹ s⁻¹ |
| PrnA (Pseudomonas fluorescens; F454K) | 3628 ± 1108 µM | 0.061 ± 0.0112 s⁻¹ | 16.7 ± 6.67 M⁻¹ s⁻¹ |
